This note sets out measurements from publication PMC4300183, “Cloning and Characterization of a Weissella confusa Dextransucrase and Its Application in High Fibre Baking” (PLoS ONE, 2015).

Substrate in this data set: OC[C@H]1O[C@@](CO)(O[C@H]2O[C@H](CO)[C@@H](O)[C@H](O)[C@H]2O)[C@@H](O)[C@@H]1O
The data set is described as follows: purified protein. In kind it is biochemical, Weissella confusa. Particulars: 20 mM Na-acetate pH 5.4, 2 mM CaCl2, 35 °C, sucrose 3-146 mM, labelled compound.

B1: WcE392-rDSR (Wc392-rDSR; recombinant WcE392-DSR dextransucrase) (Weissella confusa) (protein)
chain: DQLATQPAESAEVTQHETPTDSQAPDSVTSLSDTKETVQSSAASVDSSHVATSSASETTSSASETSTKTSSAASSVASSATMLSATSSASSSVDATITDGYHDEGGNWVYYRDGKKLTGRQLIDTFNVYFDEDGHQVKGDWRETDGKRAYYDGQEGRALTETQVVDGAVRGFDADGYEITNGFGQTSNQDTYYFDNDGNHVTGIQVIDGKTYNFDDQGRMLKGIATEVNGTMMYFDDQTGVATPTSDPKFNPELEPVPNQNAQHNAAHGTTPEDFDNMAGYLTADTWYRPNDILDNGETWRESTPTEYRPLIETWWPTKQTQADYVNYMNDALQVSTKTVSAADSEATLTAAADAIQAAIERQITVKQSTDWLRELMAAFVVTQPQWNKSSEDENDDHLQGGALSFENNPDTDANSDYRLMNRTPTNQTGERLYHIDDSLGGYELLLANDVDNSNPQVQAEQLNWLYYLMNFGSITANDPDANFDAIRVDAVDNVDADLLQLAAQYFRDAYGMATNDATSNQHLSILEDWSHNDPAYMNEHGNDQLTMDDYMHTQLIWSLTKSDAQRGKMDRFLDFYLTNRANDNTENEAQPSYSFVRAHDSEVQTVIAEIVTKLHPEAGNGLMPTQAQMDEAFKIYNADQKKAVKEYTHYNMPSAYAMLLTNKDVIPRVYYGDLYTDDGQYMATKSPYFDAIDAMLKARTKYVAGGQTMAVDKNDVLTSVRFGKGAMTASDAGTAETRTEGVGLIISNNHDLKMADSDQVVLHMGIAHANQAFRAVVMTTATGLAIYNDDNAPIRYTDANGDLIFTNADVYGVLNPQVSGFLAMWVPVGASATQDARTAASTEATTDGSAYHSNAALDSQVIFEGFSNFQAMPTTHDEYTNVVLAKHTDLLTDWSVTSVQLAPQYRSSTDGTFLDSIIQNGYAFTDRYDLGFGTPTKYGDDNDLRDVIKSLHANGIQVMADFVPDQLYALPGKELVQVTRTNNMGEPDKNSEIQHLMYVTSTRGGGEYQKQYGGEFLAKLRELYPDLFTTDQISTGKPIDDSVKIKEWSAKYLNGTAIQGRGAGYVLRDAGNNSYYRVTANTGNTNLPNQMLGKPVLTGFQKLADGYHFETLSGSAAKDAFIKDDNGELYYFDNNGVMATGEQKVRGGQYFFLPNGIALTDAFIETEDGHMRYYDKNGQLVVNQYVTDHQANAFRVDADGNVIRSQALTVDGNEQYFGSNGVQAKAQMVRDENGQAHYYAAGNGNMIKNQFILDTDGHWLYADQNGNLARGMTTLNQGTLYFDDQNHQVKDDFVYDADGVHYFNGTNGAEVKNDYAYHNGKWYYFDENGRMVTGLQTINGELRYFGADGAQLKGGQATNQKTNQTYVFDETNGSGKLVTI
notes: secreted by Lactococcus lactis NZ9800 (pNZ8037), Ni-NTA purified; predicted mature 1381 residues, 152 kDa (~160 kDa on SDS-PAGE); precursor printed as 1432 residues, but 4272 bp ORF implies 1423
Regarding B1, the Michaelis-Menten constant (Km) was found to be 14.7 ± 2.3 mM, the Vmax was 8.2 µmol/min/mg, the kcat worked out at 23.2 ± 1.1 s⁻¹ and the kcat/Km came to 1600 ± 300 M⁻¹ s⁻¹.

Usually Km stands for the concentration of substrate that gives half-maximal velocity. As a reminder, the Vmax is the rate approached at saturating substrate. Usually kcat stands for the maximal rate divided by the concentration of active sites. A word on the kcat/Km: it is the second-order rate constant that governs catalysis at low substrate concentration.
